In patent US20150344570A1 (published 2015):

T1: FcγRIIb (human, UniProt P31994 43-217)
T1 construct: extracellular domain; also called FcgRIIb; CD32B
T1 sequence (looked up): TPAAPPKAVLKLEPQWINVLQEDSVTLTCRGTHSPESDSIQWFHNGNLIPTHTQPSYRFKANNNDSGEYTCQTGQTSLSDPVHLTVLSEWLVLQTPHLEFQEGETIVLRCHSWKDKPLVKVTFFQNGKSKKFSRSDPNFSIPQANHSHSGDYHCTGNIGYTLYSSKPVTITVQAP

T2: FcγRIIb extracellular domain with C-terminal His tag (human, UniProt P31994 43-217)
T2 construct: extracellular domain; Soluble receptor expressed in FreeStyle293 cells, used as analyte in Biacore; also called FcgRIIb; 2b
T2 sequence (looked up): T1 sequence (looked up)

B1: GpH7-A5/GpH7-B3 variant P329_01G/GpL16-k0 (antibody, human IgG1, kappa)
heavy 1: not shown
heavy 2: not shown
light: DIVMTQSPLSLPVTPGEPASISCQASESLVHSNRNTYLHWYLQKPGQSPQLLIYKVSNRFSGVPDRFSGSGSGTDFTLKISRVEAEDVGVYYCSQNTHVPPTFGQGTKVEIERTVAAPSVFIFPPSDEQLKSGTASVVCLLNNFYPREAKVQWKVDNALQSGNSQESVTEQDSKDSTYSLSSTLTLSKADYEKHKVYACEVTHQGLSSPVTKSFNRGEC
notes: He Ab; mutation in the GpH7-B3 chain only; also called He Ab
B2: GpH7-A5/GpH7-B3 variant Y300_14T/GpL16-k0 (antibody, human IgG1, kappa)
heavy 1: not shown
heavy 2: not shown
light: B1 light
notes: Heterodimerized anti-glypican-3 IgG1; mutation in the GpH7-B3 chain only; also called He Ab
B3: GpH7-A5/GpH7-B3 variant I336_01G/GpL16-k0 (antibody, human IgG1, kappa)
heavy 1: not shown
heavy 2: not shown
light: B1 light
notes: as for B1
B4: GpH7-A5/GpH7-B3 variant A330_08L/GpL16-k0 (antibody, human IgG1, kappa)
heavy 1: not shown
heavy 2: not shown
light: B1 light
notes: as for B1
B5: GpH7-A5/GpH7-B3 variant Y296_20W/GpL16-k0 (antibody, human IgG1, kappa)
heavy 1: not shown
heavy 2: not shown
light: B1 light
notes: as for B2
B6: GpH7-A5/GpH7-B3 variant A330_10E/GpL16-k0 (antibody, human IgG1, kappa)
heavy 1: not shown
heavy 2: not shown
light: B1 light
notes: as for B1
B7: GpH7-A5/GpH7-B3 variant E333_18N/GpL16-k0 (antibody, human IgG1, kappa)
heavy 1: not shown
heavy 2: not shown
light: B1 light
notes: as for B1
B8: GpH7-A5/GpH7-B3 variant Y300_01G/GpL16-k0 (antibody, human IgG1, kappa)
heavy 1: not shown
heavy 2: not shown
light: B1 light
notes: as for B2
B9: GpH7-A5/GpH7-B3 variant A330_16H/GpL16-k0 (antibody, human IgG1, kappa)
heavy 1: not shown
heavy 2: not shown
light: B1 light
notes: as for B1
B10: GpH7-A5/GpH7-B3 variant A330_20W/GpL16-k0 (antibody, human IgG1, kappa)
heavy 1: not shown
heavy 2: not shown
light: B1 light
notes: as for B1
B11: GpH7-A5/GpH7-B3 variant A330_06M/GpL16-k0 (antibody, human IgG1, kappa)
heavy 1: not shown
heavy 2: not shown
light: B1 light
notes: as for B1
B12: GpH7-A5/GpH7-B3 variant A327_16H/GpL16-k0 (antibody, human IgG1, kappa)
heavy 1: not shown
heavy 2: not shown
light: B1 light
notes: as for B1
B13: GpH7-A5/GpH7-B3 variant A330_09D/GpL16-k0 (antibody, human IgG1, kappa)
heavy 1: not shown
heavy 2: not shown
light: B1 light
notes: as for B1
B14: GpH7-A5/GpH7-B3 variant E333_02A/GpL16-k0 (antibody, human IgG1, kappa)
heavy 1: not shown
heavy 2: not shown
light: B1 light
notes: as for B1
B15: GpH7-A5/GpH7-B3 variant A330_07I/GpL16-k0 (antibody, human IgG1, kappa)
heavy 1: not shown
heavy 2: not shown
light: B1 light
notes: as for B1
B16: GpH7-A5/GpH7-B3 variant A330_03V/GpL16-k0 (antibody, human IgG1, kappa)
heavy 1: not shown
heavy 2: not shown
light: B1 light
notes: as for B1
B17: GpH7-A5/GpH7-B3 variant I336_15Y/GpL16-k0 (antibody, human IgG1, kappa)
heavy 1: not shown
heavy 2: not shown
light: B1 light
notes: as for B1
B18: GpH7-A5/GpH7-B3 variant Y300_07I/GpL16-k0 (antibody, human IgG1, kappa)
heavy 1: not shown
heavy 2: not shown
light: B1 light
notes: as for B2
B19: GpH7-A5/GpH7-B3 variant A330_18N/GpL16-k0 (antibody, human IgG1, kappa)
heavy 1: not shown
heavy 2: not shown
light: B1 light
notes: as for B1
B20: GpH7-A5/GpH7-B3 variant I336_13S/GpL16-k0 (antibody, human IgG1, kappa)
heavy 1: not shown
heavy 2: not shown
light: B1 light
notes: as for B1
B21: GpH7-A5/GpH7-B3 variant E333_16H/GpL16-k0 (antibody, human IgG1, kappa)
heavy 1: not shown
heavy 2: not shown
light: B1 light
notes: as for B1
B22: GpH7-A5/GpH7-B3 variant E333_13S/GpL16-k0 (antibody, human IgG1, kappa)
heavy 1: not shown
heavy 2: not shown
light: B1 light
notes: as for B1
B23: GpH7-A5/GpH7-B3 variant Y300_13S/GpL16-k0 (antibody, human IgG1, kappa)
heavy 1: not shown
heavy 2: not shown
light: B1 light
notes: as for B2
B24: GpH7-A5/GpH7-B3 variant I332_12R/GpL16-k0 (antibody, human IgG1, kappa)
heavy 1: not shown
heavy 2: not shown
light: B1 light
notes: as for B1
B25: GpH7-A5/GpH7-B3 variant E333_12R/GpL16-k0 (antibody, human IgG1, kappa)
heavy 1: not shown
heavy 2: not shown
light: B1 light
notes: as for B1
B26: GpH7-A5/GpH7-B3 variant E333_01G/GpL16-k0 (antibody, human IgG1, kappa)
heavy 1: not shown
heavy 2: not shown
light: B1 light
notes: as for B1
B27: GpH7-A5/GpH7-B3 variant S324_19Q/GpL16-k0 (antibody, human IgG1, kappa)
heavy 1: not shown
heavy 2: not shown
light: B1 light
notes: as for B2
B28: GpH7-A5/GpH7-B3 variant A327_20W/GpL16-k0 (antibody, human IgG1, kappa)
heavy 1: not shown
heavy 2: not shown
light: B1 light
notes: as for B1
B29: GpH7-A5/GpH7-B3 variant A330_13S/GpL16-k0 (antibody, human IgG1, kappa)
heavy 1: not shown
heavy 2: not shown
light: B1 light
notes: as for B1
B30: GpH7-A5/GpH7-B3 variant Y300_08L/GpL16-k0 (antibody, human IgG1, kappa)
heavy 1: not shown
heavy 2: not shown
light: B1 light
notes: as for B2
B31: GpH7-A5/GpH7-B3 variant A327_19Q/GpL16-k0 (antibody, human IgG1, kappa)
heavy 1: not shown
heavy 2: not shown
light: B1 light
notes: as for B1
B32: GpH7-A5/GpH7-B3 variant I336_02A/GpL16-k0 (antibody, human IgG1, kappa)
heavy 1: not shown
heavy 2: not shown
light: B1 light
notes: as for B1
B33: GpH7-A5/GpH7-B3 variant E333_11K/GpL16-k0 (antibody, human IgG1, kappa)
heavy 1: not shown
heavy 2: not shown
light: B1 light
notes: as for B1
B34: GpH7-A5/GpH7-B3 variant A330_14T/GpL16-k0 (antibody, human IgG1, kappa)
heavy 1: not shown
heavy 2: not shown
light: B1 light
notes: as for B1

Legend:
FcγRIa [1] = molecular target: T3, FcγRIa (human, UniProt P12314 16-292); experiment: ratio of He/Con_1a to He/Con_2b (FcγRIa over FcγRIIb), SPR
T3 construct: extracellular domain; also called FcgRI; CD64
T3 sequence (P12314 16-292): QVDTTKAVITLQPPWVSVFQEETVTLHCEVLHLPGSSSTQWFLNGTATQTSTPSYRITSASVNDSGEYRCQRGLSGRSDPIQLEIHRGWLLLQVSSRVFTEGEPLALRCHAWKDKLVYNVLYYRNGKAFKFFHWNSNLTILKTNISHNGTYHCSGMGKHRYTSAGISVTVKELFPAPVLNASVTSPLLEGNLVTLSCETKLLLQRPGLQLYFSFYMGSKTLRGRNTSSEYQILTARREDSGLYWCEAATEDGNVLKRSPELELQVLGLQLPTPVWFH
Experimental: (§1) The heterodimerized antibodies He Abs in which one of the H chains was introduced with an alteration were assayed for their binding activities to each activating FcγR and inhibitory FcγR according to the method described in Example 4. […] The activating FcγRs in FIGS. 26, 27, 28, and 29 are FcγRIa, FcγRIIa (R), FcγRIIa (H), and FcγRIIIa, respectively.
(§2) Analysis of interaction between objective antibody and the FcγR was carried out using Biacore T100 (GE Healthcare). HBS-EP+ (GE Healthcare) was used as the running buffer, and the measurement temperature was set to 25° C. Chips produced by immobilizing the antigen peptide by the amine coupling method to a Series S Sencor Chip CM5 (GE Healthcare), or alternatively, chips produced by allowing preliminarily biotinylated antigen peptides to interact with and immobilize onto a Series S Sensor Chip SA (certified) (GE Healthcare) were used. Antibodies of interest were captured onto an antigen peptide-immobilized chip, and allowed to interact to each FcγR diluted with running buffer. To regenerate and repeatedly use the chip, the antibodies captured on the chip were washed off by reacting 10 mM glycine-HCl, pH 1.5.

FcγRIa [2] = molecular target: T3, FcγRIa; experiment: SPR (Biacore), captured antibody, soluble FcγR; relative to GpH7-A5/GpH7-B3/GpL16-k0 = 100
Experimental: as §1, §2

FcγRIIb = molecular target: T1, FcγRIIb; experiment: as above
Experimental: as §1, §2

[3] = molecular target: T4, FcγRIIIa extracellular domain with C-terminal His tag (human, UniProt P08637 17-208); experiment: SPR (Biacore); He/Con_3a divided by He/Con_2b (FcγRIIIa against FcγRIIb)
T4 construct: extracellular domain; also called FcgRIIIa; 3a
T4 sequence (P08637 17-208): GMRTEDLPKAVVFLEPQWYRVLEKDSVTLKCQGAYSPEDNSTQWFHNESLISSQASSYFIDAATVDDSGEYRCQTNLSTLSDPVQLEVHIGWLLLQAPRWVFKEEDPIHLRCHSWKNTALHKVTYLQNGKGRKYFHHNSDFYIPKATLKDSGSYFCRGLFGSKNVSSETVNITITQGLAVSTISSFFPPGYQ
Summary of the method: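 Antibodies with one altered H chain, captured on antigen-peptide chips, were tested against activating and inhibitory FcγRs by SPR. Running buffer HBS-EP+, 25 °C; 10 mM glycine-HCl, pH 1.5 regenerated the surface.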

[4] = molecular target: T4, FcγRIIIa extracellular domain with …; experiment: SPR (Biacore), antibody captured on antigen peptide chip, FcγR as analyte; GpH7-A5/GpH7-B3/GpL16-k0 = 100
[5] = molecular target: T2, FcγRIIb extracellular domain with …; experiment: as above

He_1a/2b (Ia/IIb) (FcγRIa [1]) | He/Con_1a (FcγRIa [2]) | He/Con_2b (FcγRIIb) | He_3a/2b (IIIa/IIb) [3] [ratio] | He/Con_3a (relative binding activity) [4] | He/Con_2b (relative binding activity) [5] | Binder
2.42 | 101 % of control | 41.7 % of control |  |  |  | B1
 |  |  | 1.53 | 85.4 % of control | 55.6 % of control | B2
1.21 | 109 % of control | 90.1 % of control |  |  |  | B3
1.52 | 107 % of control | 70.5 % of control |  |  |  | B4
 |  |  | 1.31 | 135 % of control | 103 % of control | B5
1.53 | 107 % of control | 70.1 % of control |  |  |  | B6
1.27 | 96.6 % of control | 76.1 % of control |  |  |  | B7
 |  |  | 1.69 | 81.6 % of control | 48.4 % of control | B8
1.21 | 106 % of control | 87.6 % of control |  |  |  | B9
1.41 | 108 % of control | 76.1 % of control |  |  |  | B10
1.3 | 105 % of control | 80.5 % of control |  |  |  | B11
1.52 | 96.5 % of control | 63.5 % of control |  |  |  | B12
1.95 | 109 % of control | 55.6 % of control |  |  |  | B13
1.23 | 103 % of control | 83.8 % of control |  |  |  | B14
1.57 | 105 % of control | 67.1 % of control |  |  |  | B15
2.01 | 106 % of control | 52.4 % of control |  |  |  | B16
1.51 | 103 % of control | 68.2 % of control |  |  |  | B17

He_1a/2b (Ia/IIb) (FcγRIa [1]) | He/Con_1a (FcγRIa [2]) | He/Con_2b (FcγRIIb) | He_3a/2b (IIIa/IIb) [3] [ratio] | He/Con_3a (relative binding activity) [4] | He/Con_2b (relative binding activity) [5] | Binder
 |  |  | 1.28 | 95.1 % of control | 74.5 % of control | B18
1.67 | 106 % of control | 63.7 % of control |  |  |  | B19
1.22 | 102 % of control | 83.7 % of control |  |  |  | B20
1.21 | 101 % of control | 83.3 % of control |  |  |  | B21
1.26 | 103 % of control | 81.8 % of control |  |  |  | B22
 |  |  | 1.37 | 73.9 % of control | 53.9 % of control | B23
2.05 | 100 % of control | 48.9 % of control |  |  |  | B24
1.27 | 102 % of control | 80.4 % of control |  |  |  | B25
1.26 | 103 % of control | 81.4 % of control |  |  |  | B26
 |  |  | 1.33 | 88.5 % of control | 66.8 % of control | B27
1.24 | 97.7 % of control | 73.8 % of control |  |  |  | B28
2.22 | 91.5 % of control | 41.3 % of control |  |  |  | B29
 |  |  | 1.43 | 105 % of control | 73.6 % of control | B30
1.78 | 96.2 % of control | 54.2 % of control |  |  |  | B31
1.25 | 106 % of control | 84.9 % of control |  |  |  | B32
1.27 | 102 % of control | 80.6 % of control |  |  |  | B33
1.35 | 105 % of control | 77.9 % of control |  |  |  | B34
